# Reference: patent US20090062190
# Tested on: LITAF + STAT6(B) complex (Homo sapiens)
# Experiment: cell_activity
# Settings: TNF promoter-luciferase in U2OS cells; inhibited by LITAF shRNA
# Chain of LITAF + STAT6(B) complex (Homo sapiens) (chain, as listed by the source, chain 1 of 2): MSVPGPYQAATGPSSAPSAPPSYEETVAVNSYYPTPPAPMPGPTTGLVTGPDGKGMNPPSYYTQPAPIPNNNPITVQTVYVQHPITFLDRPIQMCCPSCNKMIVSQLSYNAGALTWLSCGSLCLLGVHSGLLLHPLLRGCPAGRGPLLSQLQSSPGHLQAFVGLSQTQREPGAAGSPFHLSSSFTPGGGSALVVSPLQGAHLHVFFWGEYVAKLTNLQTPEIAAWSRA
# Chain of LITAF + STAT6(B) complex (Homo sapiens) (chain, as listed by the source, chain 2 of 2): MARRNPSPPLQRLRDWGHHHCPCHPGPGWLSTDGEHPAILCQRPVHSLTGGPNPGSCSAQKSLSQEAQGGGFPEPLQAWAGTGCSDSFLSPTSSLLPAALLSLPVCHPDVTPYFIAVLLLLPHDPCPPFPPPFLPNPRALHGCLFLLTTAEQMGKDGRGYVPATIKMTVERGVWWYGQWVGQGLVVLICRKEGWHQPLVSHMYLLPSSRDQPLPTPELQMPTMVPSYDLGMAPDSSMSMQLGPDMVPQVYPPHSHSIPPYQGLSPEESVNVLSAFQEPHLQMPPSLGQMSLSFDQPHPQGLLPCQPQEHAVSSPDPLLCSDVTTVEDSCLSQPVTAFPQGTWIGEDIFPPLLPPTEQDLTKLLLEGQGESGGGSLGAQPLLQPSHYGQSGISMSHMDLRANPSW
substance,measurement,value
hTNF-alpha promoter DNA probe,activity (fold vs LITAF alone),1.5
